Test results taken from the MegaScale stability set (Tsuboyama et al. 2023).

B1: EHEE_rd2_0191 (parent)
chain: TTEYTFTDDEEARRAIEELKKRGLTFRYEKHGTTWRVRVD

Variants of: B1
Assay: folding stability dG (cDNA display proteolysis); higher = more stable
Settings: PBS, room temperature

Folding stability dG [kcal/mol], by site and new letter:
R22: V 1.23; F 1.55; N 1.69; Q 2.1; H 1.64; W 1.78; Y 1.55; A 2.1; K 2.02; E 1.35; T 1.56; I 1.52; S 1.93; D 1.03; M 2.19; G 1.28; L 2.25
E17: S 1.97; Y 2.02; V 1.83; G 1.71; M 2.1; R 2.23; T 1.89; H 1.88; D 1.95; Q 2.04; F 1.97; K 2; W 2.07; A 2.25; L 2.11; I 2.01; N 2.02
E10: P 0.527; Q 1.95; R 1.99; T 2.02; S 1.87; G 2.07; D 2.15; H 1.93; V 2.02; I 2; F 1.98; M 1.96; K 1.98; W 1.93; A 2.09; N 2.12; L 1.98; Y 1.96
R14: F 1.64; K 2.12; H 1.82; G 1.35; W 1.68; D 1.45; T 1.73; Q 1.9; A 2.1; S 1.75; M 1.97; N 1.84; E 1.7; V 1.78; Y 1.64; I 1.93; L 1.91
I16: Y -0.65; C 1.58; T -0.106; L 1.64; A -0.729; V 1.12; G -0.247; N 0.255; F 1.37; M 2.23; W 0.024
L19: M 1.73; V 0.238; W 1.94; Y 1.58; A 0.832; I 1.55; F 2.64
E18: W 2.69; Q 1.97; T 1.84; N 1.9; R 1.7; Y 2.29; F 2.12; S 1.99; A 2.01; L 2.08; M 2.11; I 2.15; H 1.86; D 2.03; V 1.96; K 1.74; G 1.74
T25: G 1.49; E 1.58; P 1.84; W 2.28; K 2.25; L 1.97; A 1.95; F 2.15; D 1.46; V 2.08; I 2.14; N 2.12; Q 2.01; S 2.29; Y 2.07; H 2.25; M 1.95; R 2.27
R13: Y 2.2; D 0.9; F 2.31; Q 1.94; V 1.69; H 1.98; I 2.1; M 2.42; G 1.44; W 2.52; K 2.04; S 1.55; E 1.79; L 2.3; A 1.85; N 1.68; T 1.83
L24: E 1.1; V 2.14; T 1.12; Y 2.15; D 0.718; W 1.65; Q 1.27; F 2.08; S 1.18; K 1.55; R 1.42; N 0.838; M 1.91; H 1.46; G 0.321; I 2.16; A 2
K21: C 2.13; Y 1.49; I 1.79; D 1.32; N 1.78; E 1.71; L 1.94; T 1.82; R 2.35; W 1.37; V 1.66
